Assay results: US20250026813A1 (published 2025)

Key:
[1] = molecular target: SARS-CoV-2 spike protein receptor binding domain (RBD) (SARS-CoV-2, UniProt P0DTC2 319-541)
[2] = molecular target: SARS-CoV-2 spike protein N-terminal domain (NTD) (SARS-CoV-2, UniProt P0DTC2 14-305)
[3] = molecular target: Receptor binding domain (Neil King, University of Washington) (SARS-CoV-2, UniProt P0DTC2 328-531)
[4] = molecular target: SARS-CoV-2 spike receptor binding domain (RBD), antigen of Example 10 (SARS-CoV-2, UniProt P0DTC2 319-541)
[5] = molecular target: SARS-CoV-2 spike N-terminal domain (NTD), antigen of Example 10 (SARS-CoV-2, UniProt P0DTC2 14-305)

B1: IMPI-017 (antibody, V domains shown)
VH: EVQLVESGGGLIQPGGSLRLSCAAAGLTVSSNYMNWVRQVPGKGLEWVSVIYSGGSTYYADSVKGRFTISRDNSKNTLYLQMNSLRAEDTAVYYCARDLGTLGMDVWGQGTTVTVSS
VL: DIQLTQSPSFLSASVGDRVTITCWASQGISTYLAWYQQKPGKAPKLLIYAASTLQSGVPSRFSGSGSGTEFTLTISSLQPEDFATYYCQQLNSYLPTFGQGTKVEIK
[1]
  Kd: 2.25 nM
[2]
  Kd: 1050 nM

B2: IMPI-037 (antibody, V domains shown)
VH: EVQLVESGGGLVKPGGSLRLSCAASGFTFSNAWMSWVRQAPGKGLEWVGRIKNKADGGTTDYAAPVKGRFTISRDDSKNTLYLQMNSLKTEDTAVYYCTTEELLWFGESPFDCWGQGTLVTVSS
VL: DIQLTQSPSFLSASVGDRVTITCWASQGINSYLAWYQQKPGKAPKLLIYAASTLQSGVPSRFSGSGSGTEFTLTISSLQPEDFTTYYCQQFNDYPRTFGPGTKVEIK
[1]
  Kd: 22.3 nM

B3: IMPI-029 (antibody, V domains shown)
VH: EVQLVESGGGLIQPGGSLRLSCAASGVTVSSNYMNWVRQAPGKGLEWVSVIYSGGSTYYADSVKGRFTISRDNSKNTLFLQMNSLRAEDSAVYYCARDLGPYGVDVWGQGTTVTVSS
VL: DIQLTQSPSFLSASVGDRVTITCWASQGISSYLAWYQQKPGKAPKLLIYAASTLQSGVPSRFSGSGSGTEFTLTISSLQPEDFATYYCQELNSYPLTFGQGTRLEIK
[3]
  Kd: < 1 nM

B4: IMPI-056 (antibody, V domains shown)
VH: EVQLVESGGGLIQPGGSLRLSCAASGLTVSSNYMNWVRQAPGKKLEWVSVIYSGGSTFYADSVRGRFTISRDNSKNTLFLQMNSLRAEDSAVYYCARDLGPYGVDVWGQGTTVTVSS
VL: DIQLTQSPSFLSASVGDRVTITCWASQGISSYLAWYQQKPGKAPKLLIYAASTLQSGVPSRFSGSGSGTEFTLTISSLQPEDFATYYCQQLNSYPLTFGQGTRLEIK
[4]
  Kd: 1.59 nM
[5]
  Kd: 682 nM

B5: IMPI-060 (antibody, V domains shown)
VH: EVQLVESGGGLIQPGGSLRLSCAASGVTVSSNYMSWVRQAPGKGLEWVSVIYSGGSTFYADSVKGRFTISRDNSKNTLYLQMNSLRAEDTAVYYCARDLSYYGMDVWGQGTTVTVSS
VL: DIQLTQSPSFLSASVGDRVTITCWASQGISSYLAWYQQKPGKAPKLLIYAASTLQSGVPSKFSGSGSGTEFTLTISSLQPEDFATYYCQQLNSYPSSFGQGTKLEIK
[4]
  Kd: 141 nM

B6: IMPI-029 (antibody, V domains shown)
VH: EVQLVESGGGLIQPGGSLRLSCAASGVTVSSNYMNWVRQAPGKGLEWVSVIYSGGSTYYADSVKGRFTISRDNSKNTLFLQMNSLRAEDSAVYYCARDLGPYGVDVWGQGTTVTVSS
VL: DIQLTQSPSFLSASVGDRVTITCWASQGISSYLAWYQQKPGKAPKLLIYAASTLQSGVPSRFSGSGSGTEFTLTISSLQPEDFATYYCQELNSYPLTFGQGTRLEIK
[1]
  Kd: 0.446 nM
[2]
  Kd: 219 nM

B7: IMPI-021 (antibody, V domains shown)
VH: EVQLVESGGGLIQPGGSLRLSCAASGVTVSSNYMSWVRQAPGKGLEWVSVIYSGGSTFYADSVKGRFTISRDNSKNTLYLQMNSLRAEDTAVYYCARDLSYYGMDVWGQGTTVTVSS
VL: DIQLTQSPSFLSASVGDRVTITCWASQGISSYLAWYQQKPGKAPKLLIYAASTLQSGVPSKFSGSGSGTEFTLTISSLQPEDFATYYCQQLNSYPCSFGQGTKLEIK
[1]
  Kd: 14.7 nM

B8: IMPI-056 (antibody, V domains shown)
VH: EVQLVESGGGLIQPGGSLRLSCAASGLTVSSNYMNWVRQAPGKKLEWVSVIYSGGSTFYADSVRGRFTISRDNSKNTLFLQMNSLRAEDSAVYYCARDLGPYGVDVWGQGTTVTVSS
VL: DIQLTQSPSFLSASVGDRVTITCWASQGISSYLAWYQQKPGKAPKLLIYAASTLQSGVPSRFSGSGSGTEFTLTISSLQPEDFATYYCQQLNSYPLTFGQGTRLEIK
[3]
  Kd: < 1 nM

B9: IMPI-047 (antibody, V domains shown)
VH: EVQLVESGGGLIQPGGSLRLSCAASGFTVSSNYMNWVRQAPGKGLEWVSVIYSGGSTYYADSVKGRFTISRDNSKNTLYLQMNSLRTEDTAVYYCARDLVAYGMDVWGQGTTVTVSS
VL: DIQLTQSPSFLSASVGDRVTITCWASQGISSYLAWYQQKPGKAPKVLIYAASTLQSGVPSRFSGSGSGTEFTLTISSLQPEDFATYYCQLLNSNPLTFGGGTKVEIK
[1]
  Kd: 6.65 nM
[2]
  Kd: 2320 nM

B10: IMPI-059 (antibody, V domains shown)
VH: EVQLVESGGGLIQPGGSLRLSCAASGFTVSSIYMSWVRQAPGKGLEWVSIIYSRGSTDYADSVKGRFTISRDISKNTLYLQMNSLRAEDTAVYYCARDGTMVRGVHAFDIWGQGTMVTVSS
VL: DIQMTQSPPSLSASIGDRVTITCQASQDISNYLNWYQQKPGKAPKLLIYDASNLETGVPSRFSGSGSGTDFTLTISNLQPEDIVTYYCQQYDNLPSSFGQGTKLEIK
[4]
  Kd: 2.3 nM
[5]
  Kd: 1650 nM

B11: IMPI-055 (antibody, V domains shown)
VH: QVQLVQSGAEVKKPGASVKVSCKASGYTFTSYDINWVRQATGQGLEWMGWMNPNSGNTGYAQKFQGRVTMTRDTSINTAYMELSSLRSEDTAVYFCARGGRYCSDVTCYSGEPFDYWGQGTLVTVSS
VL: EIMLTQSPDFQSVTPKEKVTITCRASQSIGSSLHWYQQKPDQSPKLLIKFASQSISGVPSRFSGSGSGTDFTLTINSLEAEDAAAYYCHQSSSLPHTFGPGTKVEIK
[4]
  Kd: 1.85 nM
[5]
  Kd: 1360 nM

B12: IMPI-038 (antibody, V domains shown)
VH: QVQLVESGGGVVQPGRSLRLSCAASGFTFSSYGMHWVRQAPGKGLEWVAVISYDGSDKYYADSVKGRFTISRDNSKNTLYLQMNSLRAEDTAVYYCAKTVAGYYYYYYGMDVWGQGTTVTVSS
VL: DIQMTQSPSSVSASVGDRVTVTCRASQDISSWLAWFQQKPGKAPKFLIYDASNLENGVPSRFSGSGSGTDFTLTISSLQPEDFATYYCQQAKSFPWTFGQGTKVEIN
[1]
  Kd: 0.826 nM
[2]
  Kd: 475 nM

B13: IMPI-067 (antibody, V domains shown)
VH: QVQLVESGGGVVQPGTSLRLSCAASGFTFNSFGMHWVRQAPGKGLEWVAVISYDGSSKYYADSVKGRFTISRDNSKNTLYLQMNSLRAEDTAVYYCAKDEGDYDDYYYGMDVWGQGTTVTVSS
VL: EIVLTQSPGSLSLSPGERATLSCRASQSLSSRYLAWYHQKPGQAPRLLIYGASSRATGIPDRFSGSGSGTDFTLTISGLEPEDFAVYYCQQYGNSITFGGGTKVEIK
[5]
  Kd: 84.5 nM

B14: IMPI-042 (antibody, V domains shown)
VH: EVQLVESGGGLIQPGGSLRLSCAASGLTVSSNYMSWVRQAPGKGLEWVSIIYSGGSTYYADSVKGRFTISRDNSKNTLYLQMNSLRAEDTAVYYCARLGGYYYYGMDVWGQGTTVTVSS
VL: DIQMTQSPSSLSASVGERVTITCQASQDIRNYLNWYQKKPGKAPKLLIYDSSNLETGVPSRFSGGGSGTDFTFTISSLQPEDIATYYCQQYDNLPITFGQGTRLEIK
[1]
  Kd: 1.87 nM
[2]
  Kd: 662 nM

B15: IMPI-054 (antibody, V domains shown)
VH: EVQLVESGGGLIQPGGSLRLSCAASGLTVSSNYMSWVRQAPGKGLEWVSIIYSGGSTYYADSVKGRFTISRDNSKNTLYLQMNSLRAEDTAVYYCARLGGYYYYGMDVWGQGTTVTVSS
VL: DIQMTQSPSSLSASVGERVTITCQASQDIRNYLNWYQKKPGKAPKLLIYDSSNLETGVPSRFSGSGSGTDFTFTISSLQPEDIATYYCQQYDNLPITFGQGTRLEIK
[4]
  Kd: 2.06 nM
[5]
  Kd: 602 nM

B16: IMPI-022 (antibody, V domains shown)
VH: EVQLVESGGGLVQPGRSLRLSCAASGFTFDDYAMHWVRQAPGKGLEWVSGITWNSGSIGYADSVKGRFTISRDNAKNSLYLHMNSLRVEDTALYYCAKDLQGDYYYYGVDVWGQGTTVTVSS
VL: AIQLTQSPSSLSASVGDRVTITCRASQGISSALAWYQQKPGKAPKLLLYDASSLVSGVPSRFSGSRSGTDFTLTISSLQPEDFATYYCQQFISYPLTFGGGTRVEIK
[2]
  Kd: 603 nM

B17: IMPI-027 (antibody, V domains shown)
VH: QVQLQESGPGLVKPSQTLSLTCTVSGGSISSYGYYWNWIRQHPGKGLEWIGYIYYSGSTYYNPSLKSRVTISVDTSKNQLSLRLNSVSAADTAVYYCARDFGGNSNYFDYWGQGTLVTVSS
VL: AIQLTQSPSSLSASVGDRVTITCRTSQGISSALAWYQQKPGKAPKLLIYDASSLESGVPSRFSGSGSGTDFTLTISSLQPEDFATYYCQQFNSYPLTFGGGTKVEIK
[1]
  Kd: 6.31 nM
[2]
  Kd: 2910 nM

B18: IMPI-024 (antibody, V domains shown)
VH: EVQLVQSGAEVKKPGESLKISCKGSGYSFTSYWIGWVRQMPGKGLEWMGIIYPGDSDTRYSPSFQGQVTISADKSISTAYLQWSSLKASDTAMYYCVRSYNWNYFDYWGQGTLVTVSS
VL: AIQLTQSPSSLSASVGDRVTITCRASQGISSGLAWYQQKAGKAPKLLIYDVSSLESGVPSRFSGSGSGTDFTLTISSLQPEDFATYYCQQFLSYPWTFGQGTKVEIK
[1]
  Kd: 1.16 nM
[2]
  Kd: 660 nM

B19: IMPI-068 (antibody, V domains shown)
VH: QVQLVESGGDVVQPGRSLRLSCAASGFTFSRYGMHWVRQAPGKGLEWVAVISYDGSDKYYADSVKGRFTISRDNSKNTLYLQMNSLRAEDTAVYYCAKQLPLYYYYYGMDVWGQGTTVTVSS
VL: AIQLTQSPSSLSASVGDRVTITCRASQGISSALAWYQQKPGKAPNLLIYDASSLESGVPSRFSGSGSGTDFTLTISSLQPEDFATYYCQQFNIYPHTFGPGTKVDIK
[4]
  Kd: 9.47 nM
[5]
  Kd: 2570 nM

B20: IMPI-033 (antibody, V domains shown)
VH: QVQLQESGPGLVKPSQTLSLTCTVSGGSISSYGYYWSWIRQHPGKGLEWIGYIYYSGSTYYNPSLKSRVTMSVDTSKNQLSLRLNSVSAADTAVYYCARDFGGNSNYFDYWGQGTLVTVSS
VL: AIQLTQSPSSLSASVGDRVTITCRASQGISSALAWYQQKPGKAPNLLIYDASSLESGVPSRFSGSGSGTDFTLTISSLQPEDFATYYCQQFNSSPLTFGGGTKVEIK
[1]
  Kd: 3.02 nM
[2]
  Kd: 1820 nM

B21: IMPI-006 (antibody, V domains shown)
VH: QLQLQESGPGLVKPSETLSLTCTVSGGSISNSNYYWGWIRQPPGKGLEWIGSIYYSGRTYYNPSLKSRVTISVDTSKNQFSLKLSSVTAADTAVYYCARMGLLWFGEFYGMDVWGQGTTVTVSS
VL: DIQMTQSPSSLSASVGDRVTITCRASQGISSWLAWYQQKPEKAPKSLIYDASSLQRGVPSRFSGSGSGTDFTLTISSLQPEDFASYYCQQYNSYPLTFGGGTRVEIK
[3]
  Kd: < 1 nM
